Source: a protein production outcome set (Wang et al. 2014)

Test: label from the status in PepcDB records

Row | Sequence | protein production
1 | MWWWSSSTKGRSNLERFLLGITPKPPSFSLPQEQGKEEIEYFRLGDLWDCYDEMSAYGFGTQVDLNNGETVMQYYVPYLSAIQIHTNKPALLSRNQNEVAESESSEGWSDSESEKLLSRSMSNDSSKTWDAVSEDSVFDPDGSPLLKDRLGNLDFKYIERDPPHKRIPLTDKINVLVEKYPGLMTLRSVDMSPASWMAVAWYPIYHIPTCRNEKDLTTGFLTYHTLSSSFQDNVVEGDQSNNNEETEFCEDSVINKRMPLPPFGVTTYKMQGDLWGKTGFDQDRLLYLQSAADSWLKQLNVDHHDYNFFLNSSF | failed
2 | MYANKVKKIAAVHDLSGMGRVSLTVVIPILSSMGFQVCPLPTAVLSNHTQYPGFSFLDLTDEMPKIIAEWKKLEVQFDAIYTGYLGSPRQIQIVSDFIKDFRQPDSLIVADPVLGDNGRLYTNFDMEMVKEMRHLITKADVITPNLTELFYLLDEPYKADSTDEELKEYLRLLSDKGPQVVIITSVPVHDEPHKTSVYAYNRQGNRYWKVTCPYLPAHYPGTGDTFTSVITGSLMQGDSLPMALDRATQFILQGIRATFGYEYDNREGILLEKVLHNLDMPIQMASYELI | not failed
3 | MYDMLKFEFSDRFLLFSYFVLIMFIGSLLLMLPISWEGDGKLAYIDALFTAVSAVSITGLTTVKMEGFSTFGFILIMLLIQLGGLGFISITTFYLLIPKKKMNLTDARIIKQYSLSNIEYNPIRILKSILFITFSIEMIGLILILICFKLRGVNISFLEALFTTISAFCNAGFSMHSESIYAWRDVPEAIVVVSILIICGGLGFMVYRDVNNTIKNKKKLSLHAKIVFSLSFFLIIIGAILFFFTEMHKLKAGYSMSTLIFNSIFYSISTRTAGFNYLDNSLISGRTQIISLPFMFIGGAPGSTAGGIKITTFFLIVLAVVKNQNGNGYIIGSYKVSIDSIRFALLFFARAIFILSFSFFMLLFFEGGSGNWKVIDLGYEVFSAFGTVGLSVGVTQDLSFWGKVIIIFTMFAGRIGLFSMAVFVSRKSRFEEFTRPRQDILVG | failed
4 | MYDYSILPNRIILCVDLRSFYASVSCIKMGLDPMHTKLAVVGDVNRNGSIVLAATPPLKALGVKKMARLYEIPRRKDILVVNPIMSTYIKCSNYITKLALQYVPIEDFHQYSIDEFFMDITDSIHLFAQDPYEFAMKFKREIYDHTRIECTIGIAPNPLMSKVALDIEAKKNKDGIAFWQYEDIPTKLWSIRPLNKFWGISYKTEEKLNRKGIYSIGDLANYPLKYLKQSFGKIGEELHLHSHGIDFSRISEKYVPATTSIGKSQILMRDYTIEEFPIILLEHIEEVCYRLRRQTKLAQTIHFSVGYSKSYTGGIRKTHTLNRPTNLTMDIYHICTYFLHQQYTGEPIRSINISLTNLIQEGEEQISLFDNVTKREQEMKLTKVMDEIRTKFGKNSILRGISYTHSATARHRNTLIGLEHHHHHH | failed
5 | MYEITATIVTYKNPDSVLLKAINSFLNTKLEVRLYIIDNSPTDYLKDISYDPRVEYIFMNSNNGFGAGHNVILRDPEKMGKYHLILNPDISFEEGTLEKLYDYMEGKLDVGNVMPKVIYPNGELQYLCKLLPTPKDWIVRMFLPIKSIKNRIDYNFEMKFADYDREMNIPYLSGCFMFLRKSVIEGIGVFDEGIFMYGEDTDLNRRIYRKYKTMYYPQVTITHHFEKGSHKSLRLLWIHVKAAIYYLNKWGWFFDKERSIINITVKQQYIRKLEHHHHHH | not failed
6 | MYELYTLLAEYYDTIYRRRIERVKAEIDFVEEIFKEDAKREVRRVLDLACGTGIPTLELAERGYEVVGLDLHEEMLRVARRKAKERNLKIEFLQGDVLEIAFKNEFDAVTMFFSTIMYFDEEDLRKLFSKVAEALKPGGVFITDFPCWFYGGRDGPVVWNEQKGEEKLVIMDWREVEPAVQKLRFKRLVQILRPNGEVKAFLVDDELNIYTPREVRLLAEKYFEKVKIYGNLKRELSPNDMRYWIVGIAKSF | not failed
7 | MYFCGIQNSTRTKGMNKAKSTMKLFGLIGLLILWNCSCVDRHRSHALCEQSLIDSLEVRAQDSLFSNLPYSRSLLRNAMRQAQDSMSYYRLMGLYGKTFFISSDFDSILYYNRPVKEYDKRAAACPRWNDVLSDVYNIEGNVWMQLNQPDSAVAYYEKSYAYRLKGEKGHLLSDICMNLADAHLHRGELAHTASYYRKALFICDSLHLSEHSKFPVYCGLGQTYMDLRDFDLSNHYYELAGQFFDEMTVSEKWVYLNNRGNHYYYKKDYQEALVYMRQAAELIADYPQMVFESNLSKVNLGDLYLLTNRLDSAENNLNEGYRYFSEIKNNSAMHYIETLMIELFLKKGNIARAREMIARTASTGHVDANMLTIRNQYLQHYYEKAGDYRNAYEYLKRDYQLNDSIRSERIRTRVAELDMRYRQDTIVLRKEMQIQRQAGEVRVLKLSMYIWVLVCLLLAAGTVVIIWYMRKKREFLRERFFQQINRVRMENLRSRISPHFTFNVLGREINQFNGSEEVKNNLMELVKYLRRSLELTEKLSVSLQDELDFVQSYIGLESGRVGEDFTASVVVEEGLDAKSIMIPSMIVQIPVENAIKHGLAGKDGEKELTIRISREGKGVRIVICDNGRGYLPQVASSTRGTGTGLKVLYQTIQLLNTKNKNEKIRFNIGNRNDGQTGTQVSVYIPFHFSYDL | failed
8 | MYFGQNEACKKNHVVIHNELGPGIDLNIACRQFSIERTPSMFHTLKYKDPFYIIEFEDNNQLPHGERWYCLLSHGTRPKYWYDIEVYRQGYYPSCGQLRSWIAKQDGIWFTRRYDSPPGHVLNWKIQ | failed
9 | MYFLYVGIFGALGGMCRYAMNLWLGGGDFPSATLAVNLIGCFLLAFIMPFLAEKSRISLVLLNGIGTGFIGAFTTFSAFSVDTIELLQQGEVVLAISYILVSLIGGLVMVKFGRRFSNKLLRRGAHHVD | failed
10 | MYINKFVPVYTLLILIYSFNASAEWTGDNTNAYYSDEVISELHVGQIDTSPYFCIKTVKANGSGTPVVACAVSKQSIWAPSFKELLDQARYFYSTGQSVRIHVQKNIWTYPLFVNTFSANALVGLSSCSATQCFGPK | failed
11 | MYIPNAFRESDTHNLQEHMDKTRLAILVTQGDDGLHATHLPLLLRSDEGPYGTLYGHMAKANPQWQQLNADAEAMVIFPGEDAYVSPSFYPSKAEHGKVVPTWNYLAVHAYGQAECFTDPDRLHQLLNDLTDRHESSRAQPWSINDAPADYIAKMLGAIVGFSIPVQRLQGKRKLSQNRSAEDMAGVRDGLGASHLANDQQIARLMSGWRPS | not failed
12 | MYKIVSDSACDLSKEYLEKHDVTIVPLSVSFDGETYYRDGVDITRDECYQRMVDDPKLFPKTSLPSVESYADVFRSFVEQGFPVVCFTITTLFSGSYNSAINAKSLVLEDYPDANICVIDSKQNTVTQALLIDQFVRMLEDGLSFEQAMSKLDALMASARIFFTVGSLDYLKMGGRIGKVATAATGKLGVKPVIIMKDGDIGLGGIGRNRNKLKNSVLQVAKKYLDENNKDNFIVSVGYGYDKEEGFEFMKEVESTLDVKLDSETNVAIGIVSAVHTGPYPIGLGVIRKYETL | not failed
13 | MYKKLILLFFILITFNLFSDEDVLVFYSQPSSIASKFVTGILQDSYGRIWFGTKEGLAYYDGIKYKNYEYIPFSKDSIQSSQIQCLYNDPRKAENGSDVFWIGTFYGVERFNVDTETFTHFDMTSSVVLCFLRDSHGRLWIGTLDGLYILNEDDGSVVKFSQASEFYIGNNGISHIYEDSEGRIYACTHEGLWEYDEPNKRFRRSRLFEKNSAVTDSIINNIFEEDGIYWVSVWDTGLFRIDPKNGKRDLFSFSNNKITCLSNEFSDNVLLIGTWGGGLISFDKNTYSYTEYTSKQRSYNLSNDFIFSIYVDTYGSLWVGTNGGGVNIYDTKRMWSKLILPHENKIDGRENSVSGLTKDKNGNLWISLLNNGITYYDLSTGKKKYYRYSESKIISNSVFKFYIDKNEDIWVGTDLGLCKYDKKKDAFVGVNLYNDNIIEDGERLIYNIISDDNEFLWIGTYDGGLIKFSPSSGILKRYKNDPKNPNSICSNLVFSLLIDSYKRLWVGTNKGLAEYKPSTDEFAIYRYDVNNRKGISSDRITSLFQDVSGKLWIGTSDGGINIFDTEKKEALNYTANEGLPANFIIGMTHMDNHSICVTAIKGMTIFNKDTEIIYSYTLYNHERRFTTVPIMIGDQCFVGTQEGVLGMDINYLLSFKRQEVPVKIRTIGINGNQTPVFKIDLQKTYKYKYSENNISFEFSSMDLSPLSRPSYIFMLEGFDKNWINANMKNYVQYTNLKPGKYTFKVKDISNPYPEPTSFTFIIEKPFWLSTPMIAVYILIFAGLTFLACRINRLFQYKIANKKLQQEQKDLISANEQLTVLSTVDELTGVGNRRQLDTVGKDLWRRGLDNKQPISLIMIDIDLFKQYNDLYGHQAGDNVLRTVAQTLQKKLRAKYDFVGRYGGEEFLVLLYNSSASETMKIAEKLRIEIKNLNIEHSAEKDKILTISLGAYTSVPNNELSYETMLSFADSALYKAKESGRDICKMYTE | failed
